From US11110182B2, “Multifunctional RNA nanoparticles and methods for treating cancer and therapeutic resistant cancer” (University of Cincinnati, priority 2016, dated 2021) come the findings set out here.

The data set can be described thus: Tm value by temperature gradient gel electrophoresis (TGGE) assay. In kind it is physicochemical. The protocol:
Cell culture. Human breast cancer luciferase-overexpressing BT474 and MDA-MB-231 cells were maintained in DMEM medium (Hyclone, Thermo Scientific) supplemented with 10% fetal bovine serum (FBS, Sigma) and 1% penicillin/streptomycin (Corning) at 37° C. in a humidified atmosphere with 5% CO2.^53 • Generation of pRNA nanoparticles. The two strands of pRNA were synthesized with the DNA templates, which were amplified with overlapping primers (Sigma) by PCR methods, using a T7 promoter-controlled in vitro RNA transcription system as previously described^33 (Table 1). […] The hydrodynamic diameter and Tm value of pRNA nanoparticles were determined using dynamic light scattering and TGGE assay, respectively, as previously described.^54 The AFM imaging of the pRNA nanoparticles was performed at the University of Nebraska Medical Center imaging facility as previously reported.^55 Briefly, the pRNA nanoparticles (5 μL) were deposited on APS modified mica ^56 for a total of 2 min of incubation time. […] After washing three times with PBS, the cellular uptake of pRNAs was determined using a BD LSRFortessa™ flow cytometer. • Real-time PCR. […] The expression of MED 1, TFF1, c-Myc, cyclinD1 and MMP-9 was analyzed using GAPDH as the internal reference. • Western blot analyses. […]

B1: pRNA-HER2apt-siMED1: 3-WJ pRNA nanoparticle bearing a HER2-targeting RNA aptamer and two different MED1 siRNAs; strands p1 SEQ ID NO: 3, p2 SEQ ID NO: 4 (nucleic acid)
chain 1: GGACAGUGAAAGUGAGUCAAAGGAUCAAUCAUGGCCAAAGAUGUUACUUUGAGAGCCUU
chain 2: GGCUCUCAAAGUAACAUCUAAGGCCAUGUGUAUGUGGGGGGAGGACGAUGCGGUCUGCUGUGCUUGAUAUGCCCCAGACGACUCGCCCCCCACAUACUUUGUUGAUCCAAUGACUCACUUUCACUGUCCUU
modifications: 2'-F modification; third strand may lack entry; pRNA-HER2apt-siMED1, p1; pRNA-HER2apt-siMED1, p2
On to B1, for which the Tm value came to 78±2 °C.
